This series can be described thus: protein stability index of a GFP-peptide fusion (GPS, HEK-293T) (PSI 1-6); higher = more stable.
[1] abbreviates: treatment: DMSO, c terminus: a fixed tail appended.
[2] abbreviates: treatment: MLN4924 1 uM, 8 h, c terminus: a fixed tail appended.

± gives the standard deviation.
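Note: 24-mer peptide tiles fused after GFP, lentivirally expressed, FACS-sorted into six equal bins by GFP/DsRed ratio, decoded by Illumina sequencing, PSI is the read-weighted mean bin number.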

For AAEGEGSPPAVAAVAGPPAAAEVG [ANKRD17], the protein stability index by setting is: under setting [1], 5.63 ± 0.23; under setting [2], 5.21 ± 0.43.
Consider AAKFPSGSQRARVVNTDHGSPEQL [SDE2], for which the protein stability index under setting [1] turned out to be 4.56 ± 0.44 and the protein stability index under setting [2] is 4.81 ± 0.17.
Regarding AALNNHPDIMNLLIKSGAHFDATN [FEM1C], the protein stability index is, setting by setting: under setting [1], 2.41 ± 0.24; under setting [2], 2.54 ± 0.3.
In the same order, the values of AAPAAGLCGAGSEPSIAPTSCAGN [RSPH3] are 4.55 ± 0.25 and 4.68 ± 0.26.
As for AARLLFNMAGVTFRKFIPKCSKIV [DCTD], the protein stability index was 1.97 ± 0.15 under setting [1] and 2 ± 0.18 under setting [2].
In the same order, the values of AAVEGSGGSGGGSHHHHQSRGACT [KCNA4] are 4.97 ± 0.16 and 4.7 ± 0.71.
In the case of AAWCLHHICTNYNSVCSKFRKEIK [RHOBTB1], the protein stability index turned out to be 2.23 ± 0.037 under setting [1] and 2.19 ± 0.28 under setting [2].
The corresponding values for ADGSPPLLPPGEPPLLGTFPRDHT [ANKRD40] are 4.8 ± 0.28 and 4.49 ± 0.21.
Take ADIDHDQALAQAIKEAKEQHPDMS [EPB41L3]: the protein stability index by setting is: under setting [1], 5.56 ± 0.17; under setting [2], 5.51 ± 0.31.
The corresponding values for ADIPSVAFSSRLGGSRGAPGLLMA [DCAF4] are 2.83 ± 0.2 and 2.78 ± 0.51.
Turning to AEAQKNMYFKTRLKCPRSLSGGR [ZNF396], the protein stability index runs as follows: (treatment: DMSO, c terminus: native) 2.72 ± 0.45; (treatment: MLN4924 1 uM, 8 h, c terminus: native) 2.99 ± 0.44.
As to AEDLGNLWENTRFTDCSFFVRGQE [SPOPL], the protein stability index stood at 3.69 ± 0.32 under setting [1] and 3.74 ± 0.24 under setting [2].
Take AERLGVTFFEVSPLCNFNITESFT [RAB40B]: the protein stability index is, setting by setting: under setting [1], 2.13 ± 0.15; under setting [2], 2.22 ± 0.16.
Consider AFAFQNTFPHSISAKNTSHPGSGT [SASS6], for which the protein stability index is, setting by setting: under setting [1], 3.36 ± 0.39; under setting [2], 3.45 ± 0.45.
For the sequence AFNQNSSLGRHKRTHTGEKPYTCS [ZNF8], the protein stability index stood at 3.42 ± 0.33 under setting [1] and 3.79 ± 0.49 under setting [2].
Consider AFPKMALQAKQDGKKDVSHSSPVD [LCOR], for which the protein stability index is 5.26 ± 0.14 under setting [1] and 5.16 ± 0.16 under setting [2].
In the same order, the values of AFPYQYPPPPHPYNPHPGFPELGY [DVL3] are 2.35 ± 0.31 and 2.5 ± 0.35.
For the sequence AFTMAENLANCERLIEVEDMMVMG [SMTNL2], the protein stability index came to 2.58 ± 0.35 under setting [1] and 3.24 ± 0.34 under setting [2].
With AGVGLSGGAAGAGWCIFVYNLSPE [ELAVL3], the protein stability index is, setting by setting: under setting [1], 3.13 ± 0.71; under setting [2], 2.71 ± 0.26.
In the same order, the values of AHRTEFYRNLTHNPPSDFSFQNMN [STK38L] are 2.84 ± 0.34 and 2.88 ± 0.24.
Take AIAPFQSAGSPPELQGLPELHEEC [NET1]: the protein stability index under setting [1] is 4.99 ± 0.33 and the protein stability index under setting [2] was found to be 4.85 ± 0.14.
The corresponding values for AKDLPCDSKPESALGAPSKSPSSP [TBX5] are 5.49 ± 0.26 and 5.54 ± 0.2.
The corresponding values for AKPEVLSIQWPGKRSSRRVQRHNS [NECAB1] are 4.23 ± 0.2 and 4.37 ± 0.21.
The corresponding values for AKPRLAERMTTREKKVLEAGMGKV [HDAC6] are 4.38 ± 0.17 and 3.98 ± 0.2.
ALAVCLSFFYPVLFVLFMFFGMAF [SOAT1]: the protein stability index was 2.84 ± 0.46 under setting [1] and 2.94 ± 0.75 under setting [2].
Take ALDEAAAALTRMRAESTANAGQSD [ANKRD17]: the protein stability index is, setting by setting: under setting [1], 5.49 ± 0.17; under setting [2], 5.36 ± 0.25.
The sequence ALNEQACRNGSSIQIAFEEVPQLP [C2CD2L] displayed a protein stability index under setting [1] of 3.83 ± 0.38 and a protein stability index under setting [2] of 4.02 ± 0.12.
As to ALRKIIKTLAVKNEEIQSFIYSLK [FSD1], the protein stability index worked out at 2.87 ± 0.45 under setting [1] and 2.89 ± 0.42 under setting [2].
Consider AMAYHHDSRRIFVGQDNGAVMEFH [WDFY1], for which the protein stability index is, setting by setting: under setting [1], 3.08 ± 0.15; under setting [2], 2.96 ± 0.32.
In the same order, the values of ANCIVHRDLKPENILVTSGGTVKL [CDK4] are 3.23 ± 0.15 and 3.5 ± 0.32.
Regarding APDSGRSAPYSAAFLELPHGSGGS [TBX6], the protein stability index reads like this: under setting [1], 4.3 ± 0.17; under setting [2], 4.46 ± 0.066.
Consider APLSGPQALMLPPGSFWGLCQVAQ [VENTX], for which the protein stability index stood at 2.06 ± 0.28 under setting [1] and 2.27 ± 0.14 under setting [2].
For APPGSLVTKVTAVDADAGHNAWLS [PCDHGC5], the protein stability index was 3.848 ± 0.025 under setting [1] and 4 ± 0.19 under setting [2].
The corresponding values for AQLFMDHLFAGAEVILLVVMAYDR [OR4A15] are 2.2 ± 0.74 and 2.75 ± 1.
In the same order, the values of AQQLLCDEQAPQRQRLLADLLHNV [DFFB] are 3.98 ± 0.16 and 3.92 ± 0.24.
In the same order, the values of AREGGGCGRSEVRPVAPRRPRDAV [SMAD6] are 4.43 ± 0.26 and 4.36 ± 0.21.
Turning to ARHNYNDLCPPIGRRAATALLWLS [GNAS], the protein stability index runs as follows: under setting [1], 2.15 ± 0.43; under setting [2], 2.27 ± 0.35.
The corresponding values for ARLLCRLQAFGETLLLELEQDSGV [ADAMTS4] are 2.66 ± 1.3 and 2.73 ± 0.29.
For the sequence ARLRPGLAVLGADERIFSLTRRLA [HAGHL], the protein stability index was 2.47 ± 0.14 under setting [1] and 2.78 ± 0.27 under setting [2].
For the sequence ARRLTRFTGVITQGRNSLWLSDWV [CPXM2], the protein stability index was 2.43 ± 0.24 under setting [1] and 2.38 ± 0.26 under setting [2].
For the sequence ARRTTRSEPIRRAGKSGTSTPTTP [MAP2], the protein stability index is, setting by setting: under setting [1], 4.66 ± 0.12; under setting [2], 4.8 ± 0.12.
In the same order, the values of ASEFLEQSMSQTRELLLDGGYLQR [RSPH3] are 3.58 ± 0.43 and 3.55 ± 0.51.
On to ASLGEKRDHHSTHYRASEEEPEYG [CHGB], for which the protein stability index is 5.37 ± 0.24 under setting [1] and 5.34 ± 0.11 under setting [2].
For the sequence ASTTRLYLRKGRGETRICKIYDSP [RAD51], the protein stability index is, setting by setting: under setting [1], 2.94 ± 0.4; under setting [2], 3.19 ± 0.31.
As for ATAASSSASSPASVGDPCGGAICG [SLC25A25], the protein stability index under setting [1] worked out at 4.9 ± 0.34 and the protein stability index under setting [2] came to 4.85 ± 0.11.
The corresponding values for ATFNCLNKRLAKYRMRNVHPKPKL [CLCN6] are 2.56 ± 0.15 and 2.8 ± 0.27.
As for ATTNACEKPIGSCVTNPCGPRSRC [KRT33B], the protein stability index came out at 3.92 ± 0.17 under setting [1] and 4.14 ± 0.23 under setting [2].
As to AVEWARNIPFFPDLQITDQVALLR [NR2F2], the protein stability index under setting [1] is 2.64 ± 0.2 and the protein stability index under setting [2] came to 2.79 ± 0.22.
For the sequence AVGQDCYTRIWSLHDARLLRTIPS [DCAF4], the protein stability index under setting [1] amounted to 2.48 ± 0.36 and the protein stability index under setting [2] stood at 2.39 ± 0.26.
With AVGYSSDSETLDLEEAEGAVGYQP [NFE2L1], the protein stability index runs as follows: under setting [1], 5.24 ± 0.1; under setting [2], 5.33 ± 0.21.
In the same order, the values of AVIKSNHSYCRMFLQRGADTNLGR [ASB7] are 2.26 ± 0.16 and 2.41 ± 0.14.
As for AVMFFIVFFAYAQLGYLLFGTQVE [PKD2L1], the protein stability index by setting is: under setting [1], 2.7 ± 0.48; under setting [2], 2.73 ± 0.44.
As to AVPAAATRTTSFKGTSPSSKYVKL [KCTD10], the protein stability index was determined as 3.87 ± 0.2 under setting [1] and 3.99 ± 0.28 under setting [2].
Sequence AVQGLNLRSPNNFLSYYRLTRFLS [CCND1] returned a protein stability index under setting [1] of 2.3 ± 0.18 and a protein stability index under setting [2] of 2.36 ± 0.27.
Sequence AVTSLSSQIQYMNTVVSTYVTTNV [TMEM106C] came in with a protein stability index under setting [1] of 2.58 ± 0.67 and a protein stability index under setting [2] of 2.51 ± 0.39.
In the case of AWFLPMPQKSLFFHHIPSTCQRVN [SLC19A2], the protein stability index reads like this: under setting [1], 2.29 ± 0.48; under setting [2], 2.23 ± 0.075.
Consider AWLTEEEPEPAEVTSTSQSPHSPD [DDIT3], for which the protein stability index stood at 5.59 ± 0.23 under setting [1] and 5.63 ± 0.21 under setting [2].
On to AYALPAGLSAPARCLVRCLLRREP [TRIB3], for which the protein stability index is, setting by setting: under setting [1], 2.23 ± 0.49; under setting [2], 1.87 ± 0.31.
The corresponding values for AYHVPNRTLASGRLLSYRGERVAA [DNAAF3] are 3.31 ± 0.23 and 3.4 ± 0.14.
As for CASFIRTRLLLQFTQPQQTSFALE [C8orf76], the protein stability index is, setting by setting: under setting [1], 2.46 ± 0.28; under setting [2], 2.7 ± 0.58.
For CGDELPWTLQRRLTRLRTASGHEP [PLEKHN1], the protein stability index is, setting by setting: under setting [1], 2.68 ± 0.12; under setting [2], 2.7 ± 0.34.
Regarding CGSRRERCGYRLVRRQRSADEQLH [ESR2], the protein stability index reads like this: under setting [1], 2.79 ± 0.36; under setting [2], 2.93 ± 0.29.
In the same order, the values of CICWSPFLVTMANIGINGNHSLET [PTGFR] are 2.82 ± 0.26 and 2.84 ± 0.73.
Consider CKDFLCQFCAQRFGRKDHLTRHTK [PLAGL1], for which the protein stability index runs as follows: under setting [1], 2.63 ± 0.25; under setting [2], 3.09 ± 0.64.
Turning to CLAGCEGAHEQVDFKDFYPAIADL [P3H4], the protein stability index under setting [1] amounted to 3.59 ± 0.48 and the protein stability index under setting [2] was 3.68 ± 0.26.
CLIRSLLRREPSERLTAPEILLHP [TRIB1]: the protein stability index is, setting by setting: under setting [1], 2.48 ± 0.21; under setting [2], 2.2 ± 0.21.
As for CLLICAEMYQVSRLQHICELFIIT [RHOBTB3], the protein stability index was 3.06 ± 0.38 under setting [1] and 3 ± 0.27 under setting [2].
Take CLVKGIFYHCSNDDEGDSYSDNPC [SPRY1]: the protein stability index runs as follows: under setting [1], 2.61 ± 0.23; under setting [2], 2.89 ± 0.15.
As to CNVKYKRWALLSCRGKKPSRIYGQ [KLHDC10], the protein stability index is, setting by setting: under setting [1], 2.21 ± 0.42; under setting [2], 2.22 ± 0.37.
On to CRFLLNSRVTDAAFNFLLVWYYCT [TMEM120A], for which the protein stability index came to 2.85 ± 0.74 under setting [1] and 2.38 ± 0.48 under setting [2].
For the sequence CRLKKCFRAGMKKEAVQNERDRIS [HNF4A], the protein stability index turned out to be 3.22 ± 0.27 under setting [1] and 3.44 ± 0.25 under setting [2].
Regarding CSIALLRALATSNARAQQRAAAQQ [GNAS], the protein stability index is, setting by setting: under setting [1], 2.23 ± 0.23; under setting [2], 2.27 ± 0.12.

These data come from the supplement of paper PMC10567573.
